# Measured values taken from paper PMC4742067 (PLoS ONE, 2016).
# T1: human B1R C-terminally tagged with FLAG (hB1R-FLAG) (human, UniProt P46663 1-353)
# T1 construct: also called human B1R-FLAG; bradykinin B1 receptor; not shown: FLAG, C-terminal, kept
# T1 sequence (looked up): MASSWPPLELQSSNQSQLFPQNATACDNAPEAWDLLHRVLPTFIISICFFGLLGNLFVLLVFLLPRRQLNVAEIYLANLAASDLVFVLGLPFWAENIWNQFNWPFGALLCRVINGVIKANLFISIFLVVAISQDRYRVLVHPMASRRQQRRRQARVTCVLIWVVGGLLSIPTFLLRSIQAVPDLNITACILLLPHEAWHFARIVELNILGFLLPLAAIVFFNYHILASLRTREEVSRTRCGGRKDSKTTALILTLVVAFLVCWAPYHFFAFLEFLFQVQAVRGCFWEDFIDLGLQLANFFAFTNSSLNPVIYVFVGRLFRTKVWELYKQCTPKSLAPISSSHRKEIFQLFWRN
# Tests used:
# [1] = molecular target: bradykinin B1 receptor (Homo sapiens) (UniProt P46663); test: radioligand binding; conditions: cited from earlier work
# [2] = molecular target: T1, human B1R C-terminally tagged with FLAG …; test: radioligand binding; competition of unlabeled pure peptides with 1 nM [^3H]Lys-des-Arg^9-BK on intact, adherent HEK 293a cells (24-well plates) transiently expressing hB1R-FLAG; one-site competition fit (series of Fig 2 and the Lys-des-Arg^9-BK curve of Fig 7); conditions: one partner purified
# [3] = molecular target: T1, human B1R C-terminally tagged with FLAG …; test: radioligand binding; competition of dilutions of a producer-cell lysate of known EGFP-S4-P1 concentration (GFP ELISA) with 1 nM [^3H]Lys-des-Arg^9-BK (bought radioligand) on intact HEK 293a cells expressing hB1R-FLAG; Ki by the Cheng-Prusoff correction; conditions: partners not purified
# Lys-des-Arg9-bradykinin, sequence (P01042 whole entry, looked up): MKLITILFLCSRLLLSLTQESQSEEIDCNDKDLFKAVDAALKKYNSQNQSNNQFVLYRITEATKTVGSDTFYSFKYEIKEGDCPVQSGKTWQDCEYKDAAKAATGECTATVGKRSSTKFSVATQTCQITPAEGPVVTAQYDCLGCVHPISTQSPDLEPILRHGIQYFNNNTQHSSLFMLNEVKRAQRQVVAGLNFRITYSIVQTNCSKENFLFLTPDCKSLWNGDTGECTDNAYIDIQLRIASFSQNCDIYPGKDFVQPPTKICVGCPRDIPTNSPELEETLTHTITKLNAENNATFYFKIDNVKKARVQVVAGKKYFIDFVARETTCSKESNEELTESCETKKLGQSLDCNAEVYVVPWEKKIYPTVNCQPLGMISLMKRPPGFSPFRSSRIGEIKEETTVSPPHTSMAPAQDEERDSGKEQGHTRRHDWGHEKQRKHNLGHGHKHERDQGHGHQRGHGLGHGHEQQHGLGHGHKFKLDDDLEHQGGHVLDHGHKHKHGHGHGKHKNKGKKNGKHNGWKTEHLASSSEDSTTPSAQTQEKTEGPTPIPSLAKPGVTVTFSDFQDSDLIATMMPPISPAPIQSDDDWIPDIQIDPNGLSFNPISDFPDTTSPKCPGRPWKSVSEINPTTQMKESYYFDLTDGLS
molecule,measurement,setting,value
Lys-des-Arg9-bradykinin (from UniProt P01042),Kd,[1],0.35 nM
NGNGNGNGNGKRPPGFSPL [synthetic S3-P2],IC50,[2],663 nM
"NGNGNGNGNGNGNGNGNGNGNGNGNGNGNGKRPPGFSPF (ligand, also called EGFP-(Asn-Gly)15-Lys-des-Arg^9-BK) [EGFP-S4-P1 (EGFP-(NG)15-Lys-des-Arg^9-BK)]",IC50,[3],25.5 nM
same,Ki,[3],6.6 nM
NGNGNGNGNGKRPPGFSPF (also called (Asn-Gly)5-Lys-des-Arg^9-BK) [synthetic S3-P1],IC50,[2],75.1 nM
